Square brackets hold non-standard residues; d marks the D form. Ends that are not written are not given here. sY = N[C@@H](Cc1ccc(OS(=O)(=O)O)cc1)C(=O)O; pGlu = O=C1CC[C@@H](C(=O)O)N1
B1: P-selectin lectin and EGF-like (LE) domains, monomeric (receptor, human, UniProt P16109 42-198, looked up)
chain: WTYHYSTKAYSWNISRKYCQNRYTDLVAIQNKNEIDYLNKVLPYYSSYYWIGIRKNNKTWTWVGTKKALTNEAENWADNEPNNKRNNEDCVEIYIKSPSAPGKWNDEHCLKKKHALCYTASCQDMSCSKQGECLETIGNYTCSCYPGFYGPECEYVR
modifications: three N-linked glycans when expressed in CHO cells; glycosylated form used for BIAcore, N-glycanase-deglycosylated form used for crystals
notes: domain: lectin and EGF-like (LE) domains; also called P-LE; P-selectin lectin/EGF domains

Columns and labels:
[1] = target: T1, PSGL-1 19ek peptide glycopeptide-1 (GP-1) (human, UniProt Q14242 42-60, no tyrosine sulfates; SLe^X-containing core2 O-glycan at Thr-16; biotinylated at Lys residues); assay: BIAcore SPR, equilibrium; solution-phase P-LE over immobilized biotinylated GP-1
T1 construct: domain: N-terminal 19 amino acids of PSGL-1; Form of SGP-3 containing no tyrosine sulfates
T1 sequence (Q14242 42-60, looked up): QATEYEYLDYDFLPETEPP
Description: (§1) Second row, left-to-right: SGP-1 (FIGS. 1C-4), GP-1 (FIGS. 1C-5) and SP-1 (FIGS. 1C-6). […] KDs and standard deviations (shown) were determined by line-fitting of specific binding curves using BIAevaluation software (BIAcore) and are the products of three-to-ten separate experiments.
(§2) Surface plasmon resonance was performed on BIAcore 2000 and 3000 instruments at 25° C. using streptavidin-coated sensor chips (BIAcore) and HBS-P buffer (BIAcore; 10 mM HEPES (pH 7.4), 150 mM NaCl, and 0.005% polysorbate 20 (v/v)) adjusted to 1 mM each CaCl₂ and MgCl₂. The 19ek peptides and sPSGL, a fucosyltransferase-VII modified version of the entire dimeric extracellular domain of PSGL-1 (Croce et al., 1998), were biotinylated at Lys residues with Sulfo-NHS-LC-Biotin (Pierce). Following biotinylation, sPSGL was reacted with immobilized P-selectin in order to isolate functional material (Sako et al., 1995). […] Biotinylated reagents were coated onto sensor chips using HBS-P buffer.

[2] = target: T2, PSGL-1 19ek peptide SGP-2 (disulfated form of SGP-3) (human, UniProt Q14242 42-60, two tyrosine sulfates (positions not resolved; every permutation present); SLe^X-containing core2 O-glycan at Thr-16; biotinylated at Lys residues); assay: BIAcore SPR, equilibrium; solution-phase P-LE over immobilized biotinylated SGP-2
T2 construct: domain: N-terminal 19 amino acids of PSGL-1; Same polypeptide as SGP-3, less modified; also called disulfated species
T2 sequence (Q14242 42-60, looked up): QATEYEYLDYDFLPETEPP
Description: as §1, §2

[3] = target: T3, PSGL-1 19ek peptide SGP-1 (monosulfated form of SGP-3) (human, UniProt Q14242 42-60, one tyrosine sulfate (position not resolved; every permutation present); SLe^X-containing core2 O-glycan at Thr-16; biotinylated at Lys residues); assay: BIAcore SPR, equilibrium; solution-phase P-LE over immobilized biotinylated SGP-1
T3 construct: domain: N-terminal 19 amino acids of PSGL-1; Same polypeptide as SGP-3, less modified; also called monosulfated species
T3 sequence (Q14242 42-60, looked up): QATEYEYLDYDFLPETEPP
Description: as §1, §2

[4] = target: T4, PSGL-1 19ek peptide sulfopeptide-1 (SP-1) (human, UniProt Q14242 42-60, tyrosine sulfated; no carbohydrate; biotinylated at Lys residues); assay: BIAcore SPR, equilibrium; solution-phase P-LE over immobilized biotinylated SP-1
T4 construct: domain: N-terminal 19 amino acids of PSGL-1; Form of SGP-3 containing no carbohydrate
T4 sequence (Q14242 42-60, looked up): QATEYEYLDYDFLPETEPP
Description: as §1, §2

[5] = target: B1; assay: BIAcore SPR, equilibrium; solution-phase P-LE over immobilized biotinylated SGP-3, 25 °C
Description: as §1, §2

**Q.** B1 was tested. Which Kd [1] did it give?
**A.** Its Kd is roughly 31.1 µM.

**Q.** What about the Kd [2] of the same binder?
**A.** Its Kd is 2.88 µM.

**Q.** What about the Kd [3] of the same binder?
**A.** The Kd was 12.3 µM.

**Q.** What about the Kd [4] of the same binder?
**A.** The Kd was roughly 113 µM.

B2: PSGL-1 19ek peptide sulfoglycopeptide-3 (SGP-3) (peptide)
chain: [pGlu]ATE[sY]E[sY]LD[sY]DFLPET(SLeX core2 O‑glycan)EPP
modifications: also: biotinylated at Lys residues when immobilized, site not placed
**Q.** For B2, which Kd [5] is on record?
**A.** Its Kd is 0.778 µM.
